Columns and labels:
[1] = molecular target: T1, Nhis-PoyA121 (truncated variant of PoyA, residues 1-121, with the first 24 core amino acids)
T1 chain: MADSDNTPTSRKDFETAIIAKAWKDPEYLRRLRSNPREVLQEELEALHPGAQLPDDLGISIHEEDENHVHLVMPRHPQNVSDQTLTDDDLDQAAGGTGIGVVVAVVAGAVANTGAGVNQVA

[2] = molecular target: T2, N-terminally His6-tagged PoyA (polytheonamide precursor peptide)
T2 chain: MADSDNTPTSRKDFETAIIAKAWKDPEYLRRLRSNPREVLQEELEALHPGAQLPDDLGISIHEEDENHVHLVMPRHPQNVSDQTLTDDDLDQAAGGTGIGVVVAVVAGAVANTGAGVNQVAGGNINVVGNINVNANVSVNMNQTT

B1: PoyE (SAM-dependent methyltransferase (nucleophilic)) (protein)
chain: MTPRSLPTEPLAAPAAAALDAALRLLKEYLDDIGYHGIYKYLATANYYAASPSVFNASRPQSLEAFDRQIHEGPDDWMLARCLTTCAPCRLEALPPPARRVAEVLADVGLLVWNGNTLEQGGYQLISVFDRYILLDARIHFGGSQLHDVYIGPDSHLLLYYMPVEAIRPADHILDLCTGTGVIGLGLSRFSEHVVSTDIAPPALRLAHMNRALNNAEGRVSIRAENLQETLASDECFDLIACNPPYVAAPPELPTPLYAQGPDRDGLGYLRLLMERAPEKLNPGGQAMFVVDLIGDTHRPYYFDDLERIAKEQELFIEAFIDNRLKADGQLPAYKFLYARLFHGTPPEEIEQRMRNFIFDELHAYYYYMTTLRVRRRKPSGLRVLDRYRITSYDEFFQQS
- methylation of the C-terminal tryptic peptide 76-121 (LC-ESI/ECD-MS/MS) [1]: Near quantitative monomethylation was observed in this sample, with no evidence of multiple methylation. ECD fragmentation located the site of methylation exclusively to Asn112 (in full-length PoyA numbering)
- number of methylations on PoyA (MS, +14 mass units each) [2]: a suite of peptides increasing by 14 mass units (0 to 8 modifications)

B2: PoyF (LanM, N-terminal dehydratase domain) (protein)
chain: MMSSSSSREGDALAHAADPTRSIADDITCGLDSLGGPPTVCDAEHPVPFEELWLGFVAHAARALEPLIAPSLHAAVLHDPHGPLRSLLIELAEMGAPAAFELFALYRIREASAASVFGSVRGVESRDTYNAFVKHLATQQLSPLWDAFPALKPLLATRTNLFIAAMAELCQRWEADHVEIMSVFPELRGIGAPQRIRPGLSDAHGGGRTVTRLSFAGGEALFYKPRPVDMEWGCAQFVEWFNGQDHGMPPLRALSVLPRTDYGWMEAARPALCTHVDAVARFYHRAGMLLALADLFCGVDFHSENLIASGEYPVIVDLETLFHPLGPFESQGDALERTELLPRPIYCEDGAPYVICGLGVVPGKAVIELRRRGWININCDNMASCDVTVPWPVGGAVPRNKEGAAPSIATWSGEIVSGFSAMHVFFRTRRNELWSADGPIVQAFGGGRSRFLLRATRIYVELLRRAVQPQALAAHASSSHIFDRLARTGRGWDEIHRVERQALDRMDVPYFTMETTAQFVRGEGRTIHAFFATSGLHMARRRSEFIDDVILNDRAASIRNVLEQSSYSGEATLPDSRVQTDAGAGA
- mass shift of PoyA (ESI-MS) on co-expression; modified residue by LC/MS/MS [2]: produced PoyA with a mass 18 Da less than expected (observed 17090 Da, calculated 17108 Da

Source: patent US20140234903
